Measurements taken from US20190093159.

Columns and labels:
[1] = tested on: H3Kac5-containing nucleosomes (H3 K9/14/18/23/27ac)
[2] = biological target: H4Kac5-containing nucleosomes (H4 K5/8/12/16/20ac) (UniProt P62805)
nucleosomes with H4K12ac = nucleosomes with H4K12ac (UniProt P62805)
wt nucleosomes = wt nucleosomes (UniProt P62805)

Question: Which “H4 acetylation (α-H4K5ac pulldown) compared to wt” value [1] does the source give for recombinant full-length human p300 here?
Answer: 6-fold increase compared to wt

Question: And the “H3 acetylation (α-H3K18ac pulldown) compared to wt” value [2]?
Answer: 13-fold compared to wt

Question: What about the “H3 acetylation (α-H3K18ac pulldown)” value (nucleosomes with H4K12ac) of the same substance?
Answer: This effect was dependent on the exact position of the mark within the tail and was most pronounced for H4K12ac

Question: And the “pulldown efficiency with α-H4K5ac antibody (% input)” value (nucleosomes with H4K12ac)?
Answer: 4.4% input

Question: What about the “pulldown with α-H3K18ac antibody (% input), with AcCoA” value (wt nucleosomes) of the same substance?
Answer: an increase in pulldown from 0.3% to about 4% input

Question: What about the “pulldown with α-H3K18ac antibody (% input), without AcCoA” value (wt nucleosomes) of the same substance?
Answer: an increase in pulldown from 0.3% to about 4% input

Question: What about the “pulldown with α-H4K5ac antibody (% input), with AcCoA” value (wt nucleosomes) of the same substance?
Answer: 0.5 to 0.9% input

Question: What about the “pulldown with α-H4K5ac antibody (% input), without AcCoA” value (wt nucleosomes) of the same substance?
Answer: 0.5 to 0.9% input
